# Tests used:
# [1] = target: T1, human CD40 expressed on cells (human, UniProt P25942 21-277); assay: cell-based or functional assay
# [2] = target: T1, human CD40 expressed on cells; assay: cell-based or functional assay; remark: listed apart in the source
# [3] = target: T1, human CD40 expressed on cells; assay: cell-based or functional assay; remark: listed apart in the source
# [4] = target: T2, human CD40 extracellular domain expressed with a C-terminal myc-myc-hexahistidine tag (human); assay: ELISA, blocks 40 nM hCD40-mmH binding to coated 9His-hCD40L
# T2 construct: also called hCD40-MMH; hCD40-mmH
# T2 sequence (chain, as listed by the source limits assumed): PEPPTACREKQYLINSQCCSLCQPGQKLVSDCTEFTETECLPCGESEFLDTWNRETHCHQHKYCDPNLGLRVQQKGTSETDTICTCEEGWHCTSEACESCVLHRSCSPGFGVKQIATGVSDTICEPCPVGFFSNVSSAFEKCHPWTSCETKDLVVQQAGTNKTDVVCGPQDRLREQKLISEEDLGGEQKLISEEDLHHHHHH
# Experimental: In the blocking assay, 9His-hCD40L was passively absorbed at a concentration of 5 μg/mL in PBS on a 96-well microtiter plate overnight at 4° C. […] In a separate 96-well microtiter plate, a fixed amount of 40 nM hCD40-mmH was pre-mixed with one of the following antibodies, at concentrations ranging from 977 pM to 1 μM in PBS+0.5% BSA: (1) anti-CD40×CD40 bispecific antibodies (REGN16431, REGN16432, REGN16634, and REGN16335); (2) parental anti-CD40 mAbs (bivalent antibodies comprising 2 fragment antigen-binding [Fab] arms identical to one of anti-CD40 Fab of anti-CD40×CD40 antibodies); (3) anti-CD40×Irrelevant antibodies (bivalent antibodies that incorporate one Fab arm identical to one of anti-CD40 Fab of anti-CD40×CD40 antibodies and another Fab arm specific to an irrelevant antigen); and (4) human IgG4 with Fc mutation isotype control antibodies (REGN7540 and REGN4513). The fixed concentration of hCD40-mmH was selected to be near the concentration (EC₅₀ value) that generated 50% of the maximal binding to the plate-adhered 9His-hCD40L. After one-hour incubation, the antibody-antigen complexes were transferred to the microtiter plate coated with 9His-hCD40L. After one hour incubation at room temperature, the plates were washed, and plate-bound hCD40-mmH protein was detected with horseradish peroxidase (HRP) conjugated goat anti-c-Myc antibody. The plates were then developed using TMB substrate solution (BD Biosciences) according to the manufacturer's recommended procedure and the absorbance at 450 nm (OD₄₅₀) was measured on a SpectraMax i3× plate reader.
# Binding data were analyzed using a sigmoidal (four-parameter logistic) dose-response model with GraphPad Prism™ software. […] The percent blocking of tested antibodies at the highest tested concentration ([…]) was calculated based on the formula shown below: […]
# [5] = target: T1, human CD40 expressed on cells; assay: cell-based or functional assay; remark: listed apart in the source
# [6] = target: T1, human CD40 expressed on cells; assay: cell-based or functional assay; remark: listed apart in the source
# [7] = target: T1, human CD40 expressed on cells; assay: cell-based or functional assay; remark: listed apart in the source
# [8] = target: T1, human CD40 expressed on cells; assay: cell-based or functional assay; remark: listed apart in the source
# [9] = target: T1, human CD40 expressed on cells; assay: cell-based or functional assay; remark: listed apart in the source
# [10] = target: T1, human CD40 expressed on cells; assay: cell-based or functional assay; remark: listed apart in the source
# T1 sequence (P25942 21-277): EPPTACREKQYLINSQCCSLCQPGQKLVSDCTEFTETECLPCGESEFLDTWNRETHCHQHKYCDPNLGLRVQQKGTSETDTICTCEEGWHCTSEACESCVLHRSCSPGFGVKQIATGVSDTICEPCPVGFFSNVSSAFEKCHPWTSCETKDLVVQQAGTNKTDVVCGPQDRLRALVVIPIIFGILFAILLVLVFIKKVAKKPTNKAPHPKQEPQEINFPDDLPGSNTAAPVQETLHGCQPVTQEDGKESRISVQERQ
binder,measurement,setting,value
"REGN16335 (bispecific antibody, human IgG4 S228P, kappa) heavy 1: EVQLVESGGGLVQPGGSLRLSCAASGFTFSSYAMNWVRQAPGKGLEWVSIISGTIGKTYYADSVKGRFTISRDNSKNTLYLQMNSLRGEDTAVYYCAKDTERDITGSPFDYWGQGTLVTVSSASTKGPSVFPLAPCSRSTSESTAALGCLVKDYFPEPVTVSWNSGALTSGVHTFPAVLQSSGLYSLSSVVTVPSSSLGTKTYTCNVDHKPSNTKVDKRVESKYGPPCPPCPAPGGGGPSVFLFPPKPKDTLMISRTPEVTCVVVDVSQEDPEVQFNWYVDGVEVHNAKTKPREEQFNSTYRVVSVLTVLHQDWLNGKEYKCKVSNKGLPSSIEKTISKAKGQPREPQVYTLPPSQEEMTKNQVSLTCLVKGFYPSDIAVEWESNGQPENNYKTTPPVLDSDGSFFLYSRLTVDKSRWQEGNVFSCSVMHEALHNHYTQKSLSLSLGK heavy 2: EVQLVESGGGLVQPGGSLRLSCAASGFTFGSYGMAWVRQAPGKGLEWVSAISGSGDYTNYADSVKRRFTISRDNSKNTLYLQMSSLRAEDTAVYYCAKEKTGTTGYLYSGMDVWGQGTTVTVSSASTKGPSVFPLAPCSRSTSESTAALGCLVKDYFPEPVTVSWNSGALTSGVHTFPAVLQSSGLYSLSSVVTVPSSSLGTKTYTCNVDHKPSNTKVDKRVESKYGPPCPPCPAPGGGGPSVFLFPPKPKDTLMISRTPEVTCVVVDVSQEDPEVQFNWYVDGVEVHNAKTKPREEQFNSTYRVVSVLTVLHQDWLNGKEYKCKVSNKGLPSSIEKTISKAKGQPREPQVYTLPPSQEEMTKNQVSLTCLVKGFYPSDIAVEWESNGQPENNYKTTPPVLDSDGSFFLYSRLTVDKSRWQEGNVFSCSVMHEALHNRFTQKSLSLSPGK light: not shown","% max blockade relative to no mAb, IL-6, B cells, donor 1",[1],83.2%
same,"% max blockade relative to no mAb, IL-6, B cells, donor 2",[1],91.4%
same,"% max blockade relative to no mAb, IL-6, B cells, donor 3",[1],91.4%
same,"% max blockade relative to no mAb, IL-10, assay #2, donor 1",[2],88.5%
same,"% max blockade relative to no mAb, IL-10, assay #2, donor 2",[2],87.8%
same,"% max blockade relative to no mAb, TNFa, B cells, donor 1",[3],45%
same,"% max blockade relative to no mAb, TNFa, B cells, donor 2",[3],64.7%
same,"% max blockade relative to no mAb, TNFa, B cells, donor 3",[3],61.6%
same,% Blocking at highest mAb concentration,[4],96%
same,"% max blockade relative to no mAb, TNFa, assay #2, donor 1",[5],62.4%
same,"% max blockade relative to no mAb, TNFa, assay #2, donor 2",[5],52.5%
same,"% max blockade relative to no mAb, IL-10, B cells, donor 1",[6],78.5%
same,"% max blockade relative to no mAb, IL-10, B cells, donor 2",[6],93.6%
same,"% max blockade relative to no mAb, IL-10, B cells, donor 3",[6],89.8%
same,"IC50, NFkB-luc Raji, 900 pM hCD40L",[7],4.94e-11 M
same,"Max % activation, NFkB-luc Raji, no ligand",[7],9%
same,"Max % inhibition, NFkB-luc Raji, 900 pM hCD40L",[7],102%
same,"% max blockade relative to no mAb, IL-6, assay #2, donor 1",[8],88.4%
same,"% max blockade relative to no mAb, IL-6, assay #2, donor 2",[8],87%
same,"IC50, NFkB-luc Ramos, 500 pM hCD40L",[9],3.86e-11 M
same,"Max % activation, NFkB-luc Ramos, no ligand",[9],5%
same,"Max % inhibition, NFkB-luc Ramos, 500 pM hCD40L",[9],93%
same,"IC50, NFkB-luc THP-1, 10 nM hCD40L",[10],0.221 nM
same,"Max % activation, NFkB-luc THP-1, no ligand",[10],3%
same,"Max % inhibition, NFkB-luc THP-1, 10 nM hCD40L",[10],98%
